The results in this text go back to patent US9863962, “Aptamers and sensing technology used for detection of glycated hemoglobin in whole blood” (Alfaisal University).

In general, Kd refers to the constant that tells how readily two partners part at equilibrium. The low end stands for tighter binding, the high end for weaker binding.

In data set [1] the target is T1, glycated hemoglobin HbA1c (UniProt P69905;P68871 P69905:2-142,P68871:2-147). The experiment in a line: electrochemical impedance on HbA1C-gold electrode; 50 mM Tris pH 7.5, 150 mM NaCl, 2 mM MgCl2. The note with it: tags: none; purified HbA1C from Monojo (Amman, Jordan); immobilized on cysteamine/PDITC gold electrode; chain copies: 2. Here is the method: (§1) Binding analysis of the aptamer sequences to Hb and HbA1C: In order to test the binding affinity of the aptamer sequences to their protein targets, some representative sequences were synthesized after eliminating the primers sequence. A solution of 25 nM from each aptamer sequence in binding buffer was incubated with the Hb and HbA1C-modified electrodes (described in section 2.3.4) for 30 min. The electrodes were then washed with binding buffer and impedance measurements were recorded in 5 mM [Fe(CN)_6]^{3-/4-} redox couple. The binding was then evaluated by calculating the % $RCT$ change)((R−R°/R°%).
T1 sequence (P69905 2-142, chain 1 of 2): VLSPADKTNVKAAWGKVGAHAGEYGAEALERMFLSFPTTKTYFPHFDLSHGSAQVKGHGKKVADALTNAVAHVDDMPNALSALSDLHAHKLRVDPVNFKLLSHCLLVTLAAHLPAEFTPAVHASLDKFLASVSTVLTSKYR
T1 sequence (P68871 2-147, chain 2 of 2): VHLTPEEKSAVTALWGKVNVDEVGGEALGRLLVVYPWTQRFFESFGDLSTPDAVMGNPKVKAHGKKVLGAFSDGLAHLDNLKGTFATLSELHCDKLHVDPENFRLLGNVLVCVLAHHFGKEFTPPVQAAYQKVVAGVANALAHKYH
(§2) A significant change in the $Rct$ after the incubation of most of the tested aptamers with the HbA1C electrodes while no response was obtained with scrambled DNA sequence (control DNA) indicating specific binding of the aptamers to HbA1C. […] The highest change in EIS signal was obtained for aptamers G11, G23, G18, G20, G15, therefore these aptamers were subjected to further analysis to assess their binding affinity. The dissociation constants were determined by incubating different concentrations of the aptamers with Hb and HbA1C-modified electrodes. […] The K_d were then calculated from the binding curve using non linear regression analysis. […] Four HbA1C-specific aptamers with high affinity and specificity were obtained (G11, G18, G20, G23). […]

Data set [2] deals with T2, bovine serum albumin (BSA) (Bos taurus, UniProt P02769 P02769:25-607). The experiment in a line: impedance; no significant response. The note with it: tags: none; Sigma.
T2 sequence (P02769 25-607, one chain of several): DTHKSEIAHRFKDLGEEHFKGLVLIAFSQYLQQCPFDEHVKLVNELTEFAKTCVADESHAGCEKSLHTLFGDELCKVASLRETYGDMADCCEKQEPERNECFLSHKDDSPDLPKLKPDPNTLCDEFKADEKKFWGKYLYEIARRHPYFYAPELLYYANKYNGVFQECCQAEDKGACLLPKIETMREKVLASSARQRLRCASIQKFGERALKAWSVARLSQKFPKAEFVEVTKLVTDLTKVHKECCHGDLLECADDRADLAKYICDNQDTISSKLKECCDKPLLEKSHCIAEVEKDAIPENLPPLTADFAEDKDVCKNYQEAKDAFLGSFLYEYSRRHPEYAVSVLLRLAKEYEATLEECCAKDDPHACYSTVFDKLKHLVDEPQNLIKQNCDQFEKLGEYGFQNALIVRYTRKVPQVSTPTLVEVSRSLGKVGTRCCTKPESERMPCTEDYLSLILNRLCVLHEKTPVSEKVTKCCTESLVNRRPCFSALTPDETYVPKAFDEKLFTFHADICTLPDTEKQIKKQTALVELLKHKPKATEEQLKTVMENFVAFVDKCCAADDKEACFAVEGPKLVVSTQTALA
In data set [3] the target is T2, bovine serum albumin (BSA). The experiment in a line: square wave voltammetry; no response with BSA. To be noted: tags: none; Sigma. Here is the method: (§3) For the Hb and HbA1C detection and selectivity experiments, each aptamer-modified electrode on the aptasensor array chip was incubated for 30 min with specific concentrations of Hb and HbA1C standard solutions. The electrodes were then washed with 50 mM Tris-HCl buffer pH 7.4 and subjected to square wave voltammetry (SWV) measurements in 10 mM [Fe(CN)_6]^{3-/4-} redox couple in 0.1 M PBS buffer solution. The parameters used for the SWV measurements: amplitude 20 mV; interval time 0.04 s; step potential −5 mV; scan rate 125 mV s-1, and frequency 25 Hz. The cyclic voltammetry (CV) experiments were conducted at a scan rate of 100 mV/s.
(§4) Dose response of the aptasensors: The aptasensors voltammetric response toward tHb and HbA1C was measured in the concentration range of 100 pg/mL to 10 µg/mL. […] Three independent measurements were done for each data point in order to assess the reproducibility of the aptasensors array. […] The linear regression equation of the HbA1C aptasensor is (i°–i)/ i°%=45.0+14.6×log C [ng/ml], R=0.997, with a detection limit (LOD) of 0.2 ng/mL and for the tHb: (i°−i)/i°%=42.5+20.2×log C [ng/ml], R=0.98, with LOD=0.34 ng/ml. The LOD was calculated from 3(S_{y/x}/m), where S_{y/x} is the standard error of estimate and m is the slope of the calibration curve. […]

Data set [4] has as its target T1, glycated hemoglobin HbA1c. The experiment in a line: square wave voltammetry aptasensor on AuNP electrode; LOD 0.2 ng/mL. To be noted: tags: none; purified HbA1C from Monojo (Amman, Jordan); immobilized on cysteamine/PDITC gold electrode; chain copies: 2. Here is the method:
as §3, §4

Data set [5] addresses T1, glycated hemoglobin HbA1c. The experiment in a line: impedance; HbA1C-specific, Kd stated only as nanomolar range. The note with it: tags: none; purified HbA1C from Monojo (Amman, Jordan); immobilized on cysteamine/PDITC gold electrode; chain copies: 2. Here is the method: as §1
A significant change in the $Rct$ after the incubation of most of the tested aptamers with the HbA1C electrodes while no response was obtained with scrambled DNA sequence (control DNA) indicating specific binding of the aptamers to HbA1C. […] The highest change in EIS signal was obtained for aptamers G11, G23, G18, G20, G15, therefore these aptamers were subjected to further analysis to assess their binding affinity. The dissociation constants were determined by incubating different concentrations of the aptamers with Hb and HbA1C-modified electrodes. […] The K_d were then calculated from the binding curve using non linear regression analysis. […] Four HbA1C-specific aptamers with high affinity and specificity were obtained (G11, G18, G20, G23). […] The aptamer sequences may be made in full or part of it may be used for binding studies. Thus, from our SELEX screening, an aptamer that bind to the tHb (G15) as well as specific aptamers to HbA1C (G20) were obtained.

In data set [6] the target is T2, bovine serum albumin (BSA). The experiment in a line: impedance; specificity control. The note with it: tags: none; Sigma. Here is the method: The binding specificity of the HbA1C aptamer (G20) was also confirmed by incubating the HbA1C modified electrode with different concentrations of non glycated Hb and BSA as control. No significant response was obtained for the non specific proteins which indicates excellent specificity of the selected aptamer (FIG. 3). Similarly, the specificity of the tHb aptamer (G15) was verified against BSA as control. The two aptamers, G15 and G20, were then applied for Hb and HbA1C detection a microarray platform.

The target of data set [7] is T3, hemoglobin (Hb, non-glycated / total Hb) (UniProt P69905;P68871 P69905:2-142,P68871:2-147). The experiment in a line: electrochemical impedance on Hb-gold electrode; 50 mM Tris pH 7.5, 150 mM NaCl, 2 mM MgCl2. The note with it: tags: none; purified Hb from Monojo (Amman, Jordan); immobilized on cysteamine/PDITC gold electrode; chain copies: 2. Here is the method:
as §1, §2

Data set [8] has as its target T3, hemoglobin (Hb, non-glycated / total Hb). The experiment in a line: square wave voltammetry aptasensor on AuNP electrode; LOD 0.34 ng/mL. To be noted: tags: none; purified Hb from Monojo (Amman, Jordan); immobilized on cysteamine/PDITC gold electrode; chain copies: 2. Here is the method: as §3, §4
The target of data set [9] is T1, glycated hemoglobin HbA1c. The experiment in a line: impedance screen at 25 nM aptamer; lower signal than top five. The note with it: tags: none; purified HbA1C from Monojo (Amman, Jordan); immobilized on cysteamine/PDITC gold electrode; chain copies: 2. Here is the method: as §1
Binding affinity analysis of the aptamers: Eight representative sequences were subjected to initial binding analysis. Initial screening of the aptamer sequences (G11, G23, G20, G18, G15, G10, G22, G4) was performed using EIS to confirm their successful binding to HbA1C (FIG. 2A).

T3 sequence (P69905 2-142, chain 1 of 2): as the sequence (P69905 2-142, chain 1 of 2) above
T3 sequence (P68871 2-147, chain 2 of 2): as the sequence (P68871 2-147, chain 2 of 2) above

B1: G20 (ssDNA)
DNA: GGGGACACAGCAACACACCCACCCACCAGCCCCAGCATCATGCCCATCCGTCGTGTGTG
In data set [1], B1 gave a Kd of 2.8 nM. The binding result in data set [2] is reported as “no binding”.

B2: thiol-G20 (ssDNA)
DNA: B1 DNA
modifications: 5' HS-(CH2)6
For B2, the binding result in [3] is “no binding”; in data set [4], “binds”.

B3: G18 (ssDNA)
DNA: GGCCACAGCAGCCAGTACACCCACCCACCAGCCCCGTCAACGACCTGAACCTGCCCTGTGTG
As for B3, the binding result in data set [5] was “binds”.

B4: G23 (ssDNA)
DNA: GGACACGGCAAAGGGGTATAGCCTACCGGACCGTGGACATGGAATTGTGTGCTGCGTGG
Consider B4, for which, in data set [5], the binding result is listed as “binds”.

B5: G15 (ssDNA)
DNA: ACGCACACCAGAGACAAGTAGCCCCCCAAACGCGGCCACGGAACGCAGCACCTCCATGGC
Turning to B5, the binding result in [6] is given as “no binding”. The results for the Kd in data set [1] and in data set [7] were 3.3 nM and 2.7 nM, respectively.

B6: thiol-G15 (ssDNA)
DNA: B5 DNA
modifications: 5' HS-(CH2)6
As for B6, the binding result is listed as “no binding” in data set [3] and “binds” in [8].

B7: G4 (ssDNA)
DNA: GGGCCGACGGGAGGGGGAGGGAGAGCAATACGAGGTGGGATGGCAGATTATGGGTGCACT
Consider B7, for which the binding result in [9] is “binds”.

B8: G11 (ssDNA)
DNA: CGACACCAGCACACAGACCCGAGACACACGTCAGATCAACAGCGACCGTATCATTGGTTG
As for B8, in data set [5], the binding result is on record as “binds”.
